Reference: patent publication US20100216191A1, “Method for Manufacturing a Modified Peptide” (PROCOMCURE BIOTECH GMBH, priority 2007, published 2010)

Key:
[1] = target: ClfB (clumping factor B of S. aureus, NCBI Protein GI 15925620) (Staphylococcus aureus), Q99R07; experiment: cell-based or functional assay
[2] = target: His-tagged recombinant ClfB protein (Staphylococcus aureus); experiment: pull-down competition on His-tagged ClfB beads, anti-GST Western blot, densitometry; competes with GST-tagged Frag2-CDS

Sequence of ClfB (clumping factor B of S. aureus, NCBI Protein GI 15925620) (Staphylococcus aureus), Q99R07 (Q99R07 45-841 limits assumed): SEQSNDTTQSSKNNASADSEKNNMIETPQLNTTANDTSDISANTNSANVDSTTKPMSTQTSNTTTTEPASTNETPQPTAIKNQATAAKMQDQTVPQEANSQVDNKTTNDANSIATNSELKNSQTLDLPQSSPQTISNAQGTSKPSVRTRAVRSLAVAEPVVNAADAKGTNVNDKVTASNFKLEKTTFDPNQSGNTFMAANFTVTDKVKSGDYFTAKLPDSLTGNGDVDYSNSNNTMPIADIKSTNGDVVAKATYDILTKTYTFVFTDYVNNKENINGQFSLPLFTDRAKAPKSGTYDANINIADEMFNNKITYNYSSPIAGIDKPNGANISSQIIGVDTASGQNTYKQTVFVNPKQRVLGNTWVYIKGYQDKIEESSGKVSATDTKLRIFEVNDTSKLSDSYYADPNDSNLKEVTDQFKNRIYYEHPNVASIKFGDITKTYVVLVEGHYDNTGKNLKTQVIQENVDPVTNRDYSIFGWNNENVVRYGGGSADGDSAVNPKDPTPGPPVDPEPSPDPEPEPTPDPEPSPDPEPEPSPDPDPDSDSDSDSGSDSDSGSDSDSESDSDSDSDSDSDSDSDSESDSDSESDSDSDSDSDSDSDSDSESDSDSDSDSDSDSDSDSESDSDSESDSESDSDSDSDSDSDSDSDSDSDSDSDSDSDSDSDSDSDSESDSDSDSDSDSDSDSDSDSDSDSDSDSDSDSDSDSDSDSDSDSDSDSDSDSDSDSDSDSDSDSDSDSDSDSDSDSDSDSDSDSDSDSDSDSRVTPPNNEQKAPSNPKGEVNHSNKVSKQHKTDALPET

B1: more stronger binder (peptide SEQ ID NO 73) (peptide)
peptide: YSLGSSFGSGAGSSSSSRTSPSRAVVVK
modifications: not checked
Binder B1 has a beta-galactosidase expression (X-Gal beta galactosidase overlay assay, Y2H) (% more than the original binder) [1] of over 100.

B2: stronger binder (peptide SEQ ID NO 97) (peptide)
peptide: YSLGSSFGSGAGSSSLGRTSSSRAVVVK
modifications: not checked
For B2, the beta-galactosidase expression (X-Gal beta galactosidase overlay assay, Y2H) (% more than the original binder) [1] was over 50.

B3: IPEP-21SA (synthetic peptide of 21 amino acids) (peptide)
peptide: SYSLGSSFGSGAGSSSFSRTS
modifications: not checked
Work on B3 yielded a percent inhibition of the binding of GST-tagged keratin fragment to ClfB-protein at 1 µM peptide [2] of 40%.
